Values quoted from earlier work in article PMC4188523.

How the values were obtained:
Glu35 = Glu35 (UniProt position 53, CAAKFESNFNT); assay: NMR (according to the title of cited reference 36; not described in this article)
Asp52 = Asp52 (UniProt position 70, TDGSTDYGILQ); assay: as above

Hen egg white lysozyme (HEWL, lysozyme C) (Gallus gallus)
pKa (Glu35): ∼6.2 | pKa (Asp52): ∼3.6
